Laboratory results published in article PMC3075217.

Target: rat collagen type I (rat) (UniProt P02454)
Test: ELISA; rat collagen type I coated on a 96-well plate; rPnxIIIA variants applied at 10 μg/ml; detected with anti-6x Histidine tag monoclonal antibody, read as A620

UniProt P02454, sequence (P02454 152-1207, chain 1 of 2): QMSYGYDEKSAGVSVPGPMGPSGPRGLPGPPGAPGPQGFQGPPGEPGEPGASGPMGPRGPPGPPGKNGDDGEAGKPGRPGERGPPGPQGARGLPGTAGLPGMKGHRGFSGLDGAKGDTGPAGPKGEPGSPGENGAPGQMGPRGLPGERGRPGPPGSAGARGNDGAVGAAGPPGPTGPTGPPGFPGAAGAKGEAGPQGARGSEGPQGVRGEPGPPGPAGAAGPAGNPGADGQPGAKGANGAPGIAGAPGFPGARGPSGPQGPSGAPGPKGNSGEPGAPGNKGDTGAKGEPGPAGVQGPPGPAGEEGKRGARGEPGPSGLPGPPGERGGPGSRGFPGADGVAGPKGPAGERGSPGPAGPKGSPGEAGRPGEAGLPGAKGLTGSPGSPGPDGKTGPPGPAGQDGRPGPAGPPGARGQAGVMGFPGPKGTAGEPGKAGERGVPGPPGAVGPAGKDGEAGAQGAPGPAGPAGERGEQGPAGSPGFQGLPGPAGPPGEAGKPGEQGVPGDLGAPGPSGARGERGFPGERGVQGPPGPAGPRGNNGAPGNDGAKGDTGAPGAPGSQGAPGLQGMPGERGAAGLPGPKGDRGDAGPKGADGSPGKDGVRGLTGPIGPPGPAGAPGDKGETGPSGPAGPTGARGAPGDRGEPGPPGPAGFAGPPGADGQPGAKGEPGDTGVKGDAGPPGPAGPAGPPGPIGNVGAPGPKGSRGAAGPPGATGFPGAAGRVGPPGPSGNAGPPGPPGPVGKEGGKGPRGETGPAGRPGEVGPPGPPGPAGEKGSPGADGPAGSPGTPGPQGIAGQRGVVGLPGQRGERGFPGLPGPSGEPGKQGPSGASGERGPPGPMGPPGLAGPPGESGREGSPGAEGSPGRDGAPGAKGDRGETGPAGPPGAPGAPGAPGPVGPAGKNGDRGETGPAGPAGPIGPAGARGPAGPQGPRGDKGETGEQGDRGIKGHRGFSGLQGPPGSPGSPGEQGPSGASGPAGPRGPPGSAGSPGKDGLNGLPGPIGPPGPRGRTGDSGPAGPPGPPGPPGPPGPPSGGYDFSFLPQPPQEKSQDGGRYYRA
UniProt P02454, sequence (P02466 86-1125, chain 2 of 2, further chain): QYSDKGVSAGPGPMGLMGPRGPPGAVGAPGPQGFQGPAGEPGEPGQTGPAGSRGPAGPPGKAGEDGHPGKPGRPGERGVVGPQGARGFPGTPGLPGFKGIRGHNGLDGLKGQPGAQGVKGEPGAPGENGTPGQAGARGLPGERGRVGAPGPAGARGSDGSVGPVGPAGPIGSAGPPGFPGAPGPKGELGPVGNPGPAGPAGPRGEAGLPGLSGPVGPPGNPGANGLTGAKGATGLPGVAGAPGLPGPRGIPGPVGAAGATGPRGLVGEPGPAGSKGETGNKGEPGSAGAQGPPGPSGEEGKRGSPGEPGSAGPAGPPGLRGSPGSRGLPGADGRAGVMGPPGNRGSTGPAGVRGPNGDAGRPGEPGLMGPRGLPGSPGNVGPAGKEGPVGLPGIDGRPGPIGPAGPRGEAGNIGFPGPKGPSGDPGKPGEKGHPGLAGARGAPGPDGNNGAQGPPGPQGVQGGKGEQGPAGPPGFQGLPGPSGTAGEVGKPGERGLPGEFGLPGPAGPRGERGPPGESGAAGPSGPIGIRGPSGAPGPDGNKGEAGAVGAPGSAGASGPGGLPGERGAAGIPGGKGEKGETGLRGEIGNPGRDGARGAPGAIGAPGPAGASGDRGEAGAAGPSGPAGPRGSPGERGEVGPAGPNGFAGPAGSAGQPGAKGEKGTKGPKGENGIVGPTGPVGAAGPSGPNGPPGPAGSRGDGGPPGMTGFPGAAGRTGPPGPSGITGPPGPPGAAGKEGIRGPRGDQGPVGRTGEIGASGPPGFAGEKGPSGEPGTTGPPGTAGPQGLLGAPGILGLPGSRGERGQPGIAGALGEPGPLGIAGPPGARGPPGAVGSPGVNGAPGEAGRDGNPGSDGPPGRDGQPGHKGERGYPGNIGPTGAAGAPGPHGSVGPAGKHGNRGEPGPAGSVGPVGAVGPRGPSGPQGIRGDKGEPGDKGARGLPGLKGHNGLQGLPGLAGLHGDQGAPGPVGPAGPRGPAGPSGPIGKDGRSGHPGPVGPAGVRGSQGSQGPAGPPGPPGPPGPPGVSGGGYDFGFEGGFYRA

Recombinant PnxIIIA protein (natural protein)
A620 at 10 μg/ml: 0.55 A620
